The results in this text go back to IntAct's records for PubMed 17537733.

This assay has as its target kdm1a_human KDM1A (UniProt O60341).

On to “Histone H3.1t (Homo sapiens) (from UniProt Q16695) K5M”, for which the “effect of a mutation on the interaction” value is reported as “decreasing interaction”.
